Consider two compounds from PMC2605743, “Lipid bilayer composition influences small multidrug transporters” (BMC Biochemistry, 2008).

The target of one data set is T1, EmrE (Escherichia coli, UniProt P23895).
T1 construct: dimer by TPP stoichiometry
Nature of the data set: isothermal titration calorimetry. The format is binding. Background: ITC needs no label: the signal is the heat of the interaction.

In data set [1] the test system is C[n+]1ccc(-c2cc[n+](C)cc2)cc1. Kind of data set: purified protein. To be noted: labelled compound; DOPC liposomes without added DOPG; pH gradient (inside 7.5, outside 8); saturation incomplete, estimate.

By Kd is commonly meant the equilibrium constant for the complex coming apart. Read a low Kd as higher affinity. As usually defined, the Km is the substrate concentration at which the rate is half of its maximum. As a reminder, the Vmax is the rate approached at saturating substrate.

T1 sequence (P23895 whole entry): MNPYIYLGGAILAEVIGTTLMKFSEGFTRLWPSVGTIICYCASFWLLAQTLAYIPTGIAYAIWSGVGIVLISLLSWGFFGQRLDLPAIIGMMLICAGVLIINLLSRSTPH

On to `c1ccc([P+](c2ccccc2)(c2ccccc2)c2ccccc2)cc1` [TPP], for which the Kd at EmrE worked out at 36 nM.

For the compound EmrE (Escherichia coli K-12), in data set [1], the Km was 1100 ± 500 µM and the Vmax was 2 µmol/min.
